Molecular target: the molecule itself
Assay: SEC-MALS; SEC-MALLS, Superdex 200 10/300, 100 mM Tris-HCl, 150 mM NaCl, pH 8.0; protein concentrated to about 4 mg/ml; three batches, two with 10% glycerol

B1: HPF^long from L. lactis with N-terminal Strep-tag (natural protein, UniProt A2RIX0 1-185, looked up)
chain: MIKFNIRGENVEVTDAIRAYVEDKIGKLDKYFNDGHEVTAYVNLKVYTEKRAKVEVTLPAKNVTLRAEDTSQDMYSSIDFVEEKLERQIRKYKTRMNRKPRNAVPTGQVFGDEFAPLDTTDEVAEDHVDIVRTKHVALKPMDAEEAVLQMDMLGHDFYVFTDADSNGTHVVYRRTDGRYGLIETE
notes: HPF^long of Lactococcus lactis, 185 residues, calculated monomer mass 21.3 kDa; also called purified HPF^long; source: overexpressed in L. lactis NZ9000, purified on a Strep-tactin Sepharose column
stoichiometry N: 2

From paper PMC5620043, “A general mechanism of ribosome dimerization revealed by single-particle cryo-electron microscopy” (Nature Communications, 2017)
